In patent US9206246B2, “Heparin/heparan sulfate-dependent inhibitors of activated protein C and uses thereof in treating hemophilic disorders” (Academia Sinica, priority 2012, dated 2015):

Assays:
[1] = Heparin binding assay (HiTrap Heparin column, NaCl gradient); conditions: data not shown
Protocol: A: 70 μg of DrKIn-I in 0.1 ml equilibrating buffer (20 mM Tris-HCl, pH 8.0) was applied to a 5 ml HiTrap Heparin column and eluted with a 50 ml gradient from 0.0-1.0 M NaCl. The salt concentration corresponding to the elution peak was determined to be 0.95 M. B, Binding of DrKIn-I (0.78, 1.56, 2.34, 3.13, 4.68 and 6.25 nM) to immobilized APC was assessed in buffer containing 10 mM HEPES, 0.15 M NaCl, 3 mM EDTA and 0.05% P20 at a flow rate of 60 μl/min at 25° C. […] The thin lines represent the global fit to the response data. […] Results shown are means±SD of three experiments. Representative binding traces are shown.

[2] = target: T1, human activated protein C (Homo sapiens, UniProt P04070); assay: Inhibition of APC amidolytic activity (Spectrozyme PCa chromogenic substrate); type: biochemical
T1 construct: purchased Haematologic Technologies
Protocol: B: Dose-response curves of APC (10 nM) inhibition by DrKIn-I in the absence (◯) and presence (●) of 0.1 U/ml heparin. C: To determine the minimum concentration of heparin required for the potentiation APC inhibition, the activity of APC (20 nM) was measured after the addition of DrKIn-I (20 nM) and varying concentrations of heparin (0-1000 mU/ml). D: To assess the ability of heparan sulfate and the minimum length of heparan sulfate required to potentiate DrKIn-I-mediated APC inhibition, the amidolytic activity of APC was determined in the presence of DrKIn-I (20 nM) and different lengths of heparan sulfate chains (10 μg/ml each). E, Time course of FVa inactivation by APC (1 nM) was assessed in the absence (●) or presence (▪) of 5 nM DrKIn-I, or in the presence of 5 nM DrKIn-I supplemented with 0.1 U/ml heparin (▴), as described in “Materials and methods”. F, The effect of DrKIn-I (0-250 nM) and/or heparin (0.1 U/ml) on APC-mediated FVa inactivation was determined after 10 minutes of incubation at 37° C. with APC (5 nM). Results shown are means±SD of three experiments.
All inhibition assays were performed in 96-wells microtiter plates in 25 mM Tris-HCl (pH 7.4), 150 mM NaCl, 2.5 mM CaCl2 and 5 mg/ml BSA. For comparison between DrKIn-I and DrKIn-II, the amidolytic activity of 10 nM APC, with or without 0.1 U/ml heparin, was assayed in the presence or absence of equal molar concentrations of DrKIn-I or DrKIn-II. Immediately after the addition of APC, Spectrozyme PCa was added and the rates of p-nitroaniline release were monitored at 405 nm for 10 minutes at 37° C. For dose response curves, APC was mixed with different concentrations of DrKIn-I in the presence or absence of heparin. The final concentrations were as follows: APC (10 nM), heparin (0.1 U/ml) and DrKIn-I (0-100 nM in the presence of heparin and 0-12800 nM in the absence of heparin). Dose-response curves were fitted using GraphPad Prism (GraphPad Software). In other inhibition experiments, varying concentrations of heparin ([…]) or different lengths of heparan sulfate chains (10 μg/ml) were added to equimolar concentrations of APC and DrKIn-I (20 nM each). In all the inhibition experiments, Spectrozyme PCa was added to a final concentration of 0.2 mM. Changes in absorbance were measured using SpectraMax M2^e Microplate Reader (Molecular Devices).

APC [3] = target: T2, APC (Homo sapiens, UniProt P04070); assay: APC inhibition by recombinant DrKIn-I wild type and mutants (S-2366 chromogenic substrate); type: biochemical; conditions: APC 20 nM, S-2366 0.4 mM
From the text: A: amino acid alignment of the C-terminal regions of the wild-type DrKIn-I peptide and three mutants, which were generated by either deleting or mutating (alanine substitution; denoted by bold letters) one or both of the C-terminus heparin binding motifs. Underlined amino acids are the putative heparin binding motifs. B: SDS-PAGE analysis of the wild-type and mutant DrKIn-I peptides. Wild-type: SEQ ID NO:3. Mutant 1: SEQ ID NO:4. Mutant 2: SEQ ID NO:5. Mutant 3: SEQ ID NO:6. C-D: Inhibitory effect of DrKIn-I wild type (●), mutant 1 (▴), mutant 2 (▾) and mutant 3 (▪) on APC (20 nM) in the presence (C) or absence (D) of heparan sulfate (10 μg/ml). Activity of APC without the addition of inhibitors was considered as 100%.
The wild-type DrKIn-I and the mutants at various concentrations were mixed with APC (20 nM) in the presence of heparin or heparan sulfate (10 μg/ml). After 3 minutes of incubation, a chromogenic substrate S-2366 (0.4 mM) was added and the rate of p-nitroaniline release was monitored at 405 nm for 10 minutes at 37° C. […] On the other hand, Mutants 1 and 2 inhibit APC in the presence of heparin.
Target sequence in this assay (P04070 212-450 limits assumed): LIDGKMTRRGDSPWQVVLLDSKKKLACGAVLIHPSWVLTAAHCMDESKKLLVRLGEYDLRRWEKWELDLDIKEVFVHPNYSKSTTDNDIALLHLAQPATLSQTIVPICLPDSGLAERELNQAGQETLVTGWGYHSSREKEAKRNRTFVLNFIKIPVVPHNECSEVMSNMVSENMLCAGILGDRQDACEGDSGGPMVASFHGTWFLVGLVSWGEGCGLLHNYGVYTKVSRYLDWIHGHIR
Target sequence in this assay (P04070 43-197 limits assumed): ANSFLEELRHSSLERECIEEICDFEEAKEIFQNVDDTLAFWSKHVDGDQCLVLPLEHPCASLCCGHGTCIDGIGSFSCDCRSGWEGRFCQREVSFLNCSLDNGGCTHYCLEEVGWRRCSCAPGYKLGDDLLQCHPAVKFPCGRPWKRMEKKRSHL

plasmin = assay: Euglobulin clot lysis assay; type: biochemical
APC [4] = target: T2, APC; conditions: in the absence of heparin; cited from earlier work
Target sequence in this assay (P04070 212-461 limits assumed): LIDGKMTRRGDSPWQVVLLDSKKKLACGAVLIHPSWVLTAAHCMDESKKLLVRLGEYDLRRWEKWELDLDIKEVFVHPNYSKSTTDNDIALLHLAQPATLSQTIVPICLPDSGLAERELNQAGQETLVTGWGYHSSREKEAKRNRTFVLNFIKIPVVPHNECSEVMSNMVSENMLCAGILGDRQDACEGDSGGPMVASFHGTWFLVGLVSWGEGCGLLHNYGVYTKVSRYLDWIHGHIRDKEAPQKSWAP
Target sequence in this assay (P04070 43-197 limits assumed): as the sequence (P04070 43-197 limits assumed) above

T1 sequence (P04070 212-450 limits assumed): as the sequence (P04070 212-450 limits assumed) above
T1 sequence (P04070 43-197 limits assumed): as the sequence (P04070 43-197 limits assumed) above

DrKIn-II (HDRPTFCNLAPESGRCRAHLRRIYYNLESNKCEVFFYGGCGGNDNNFSTWDECRHTCVGK)
affinity towards heparin column [1]: no affinity towards heparin column | inhibitory activity against APC in the absence of heparin ([2]; 10 nM inhibitor, 10 nM APC, no heparin): little inhibitory activity against APC | decrease of APC activity (inhibition of APC amidolytic activity) ([2]; equimolar inhibitor and APC (10 nM each), 0.1 U/ml heparin, Spectrozyme PCa 0.2 mM): ~20% | inhibitory activity against APC ([2]; summary statement in discussion): no inhibitory activity against APC

Mutant 1: Recombinant DrKIn-I mutant R50A/K51A/K52A lacking one of the two heparin binding sites (CGGNDNNFETAAACRQTCGAPRKGRPT)
APC inhibition in the presence of heparin (APC [3]): inhibit APC

Mutant 2: Recombinant DrKIn-I deletion mutant Δ60-66 lacking one of the two heparin binding sites (CGGNDNNFETRKKCRQTCGA)
APC inhibition in the presence of heparin (APC [3]): inhibit APC

aprotinin [reference compound]
prolongation of euglobulin clot lysis time (plasmin; 20 nM inhibitor): ~9 h | prolongation of euglobulin clot lysis time (plasmin; 100 nM inhibitor): more than 16 hours

heparin [reference compound]
effect of heparin alone on APC activity ([2]; heparin alone 0.1 U/ml, regardless of the type of substrate (Spectrozyme PCa or FVa)): did not alter the activity of APC

B1: protein C inhibitor: plasma APC inhibitor belonging to the serpin family (protein, UniProt P05154 26-406, looked up)
Plasma serine protease …: EMKKRVEDLHVGATVAPSSRRDFTFDLYRALASAAPSQSIFFSPVSISMSLAMLSLGAGSSTKMQILEGLGLNLQKSSEKELHRGFQQLLQELNQPRDGFQLSLGNALFTDLVVDLQDTFVSAMKTLYLADTFPTNFRDSAGAMKQINDYVAKQTKGKIVDLLKNLDSNAVVIMVNYIFFKAKWETSFNHKGTQEQDFYVTSETVVRVPMMSREDQYHYLLDRNLSCRVVGVPYQGNATALFILPSEGKMQQVENGLSEKTLRKWLKMFKKRQLELYLPKFSIEGSYQLEKVLPSLGISNVFTSHADLSGISNHSNIQVSEMVHKAVVEVDESGTRAAAATGTIFTFRSARLNSQRLVFNRPFLMFIVDNNILFLGKVNRP
second order rate constant of APC inhibition (APC [4]): 2500 M⁻¹ s⁻¹
